B1: huCAN46G24 (antibody, V domains shown)
VH: EVQLVQSGAEVKKPGESVKVSCKASGYSFTGYYIHWVKQAPGQGLEWVGRIFPYNGAASYNQNFKGKATLTVDKSSSTAYMELSSLRSEDTAVYFCARWLRVYFDYWGQGTTVTVSS
VL: EIVLTQSPSSLSTSVGDRVTISCSASSSVTYMHWYQQKPGKAPKLWIYETSKLASGVPGRFSGSGSGNSYTFTISSLQPEDIATYYCFQGSGYPFTFGQGTKVEIK
notes: also called HuCAN46G24-2-3
B2: huCAN46G13a (antibody, V domains shown)
VH: QVQLQESGPGLVKPSQTLSLTCTVTGYSITSDSAWNWIRQFPGNNLEWMGYISYSGSTSYNPSLKSRISITRDTSKNQFSLKVNSVTAADTAVYYCARRSRVSFYFDYWGQGTLVTVSS
VL: ENVLTQSPSSLSASVGDRVTMTCSASSSVSSSYLHWYQQKPGKSPKPLIHRTSTLASGVPSRFSGSGSGTSYSLTISSLQPEDIATYYCQQWSGYPYTFGGGTKVEIK

Experiments:
[1] = target: recombinant toxin B fragment 1 (Clostridium difficile, UniProt P18177 1-546); test: Western blot, 3 ug protein per lane, mAb from CHOK1SV at 0.038 ug/mL [Cont.]
recombinant toxin B fragment 1, sequence (P18177 1-546 limits assumed): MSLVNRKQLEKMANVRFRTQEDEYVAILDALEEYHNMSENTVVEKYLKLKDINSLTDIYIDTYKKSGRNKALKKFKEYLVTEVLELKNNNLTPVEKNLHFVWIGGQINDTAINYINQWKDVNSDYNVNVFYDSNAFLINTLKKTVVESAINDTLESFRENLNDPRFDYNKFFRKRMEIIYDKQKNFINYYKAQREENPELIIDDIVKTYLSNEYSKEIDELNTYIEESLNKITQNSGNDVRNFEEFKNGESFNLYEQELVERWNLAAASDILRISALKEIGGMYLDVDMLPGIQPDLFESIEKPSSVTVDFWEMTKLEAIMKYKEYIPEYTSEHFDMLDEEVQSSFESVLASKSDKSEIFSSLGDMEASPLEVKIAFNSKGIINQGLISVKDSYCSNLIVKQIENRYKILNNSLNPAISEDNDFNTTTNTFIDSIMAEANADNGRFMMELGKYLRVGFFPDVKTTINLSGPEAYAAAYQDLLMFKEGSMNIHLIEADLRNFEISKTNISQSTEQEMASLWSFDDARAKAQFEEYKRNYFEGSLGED

[2] = target: T1, recombinant toxin B fragment 4 (Clostridium difficile, UniProt P18177 1777-2366); test: as above
T1 sequence (P18177 1777-2366 limits assumed): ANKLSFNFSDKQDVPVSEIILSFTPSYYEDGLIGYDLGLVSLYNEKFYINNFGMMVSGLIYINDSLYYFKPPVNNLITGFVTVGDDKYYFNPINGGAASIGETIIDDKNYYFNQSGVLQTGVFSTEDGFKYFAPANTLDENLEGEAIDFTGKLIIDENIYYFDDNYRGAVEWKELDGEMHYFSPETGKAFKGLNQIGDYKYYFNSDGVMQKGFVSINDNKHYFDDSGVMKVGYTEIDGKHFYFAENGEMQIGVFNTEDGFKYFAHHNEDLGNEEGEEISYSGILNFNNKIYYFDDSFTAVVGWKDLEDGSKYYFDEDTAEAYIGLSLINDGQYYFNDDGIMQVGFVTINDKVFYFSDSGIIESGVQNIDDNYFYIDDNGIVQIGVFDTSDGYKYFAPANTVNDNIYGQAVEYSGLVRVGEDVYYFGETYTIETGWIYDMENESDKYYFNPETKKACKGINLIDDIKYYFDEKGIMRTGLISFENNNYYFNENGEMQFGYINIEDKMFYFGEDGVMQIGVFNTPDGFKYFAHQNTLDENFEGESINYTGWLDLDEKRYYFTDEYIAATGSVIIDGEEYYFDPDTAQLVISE

[3] = target: T2, Clostridium difficile toxin B (whole toxin B) (Clostridium difficile); test: BLI (Octet QKe), mAb on SA sensor, toxin B analyte, model 1:1; head prints KD (nM) but Kdis/Kon gives this number in M
T2 construct: also called TcdB; tcdB

[4] = target: T2, Clostridium difficile toxin B (whole …); test: BLI (Octet QKe), mAb on SA sensor, toxin B analyte, model 1:1
[5] = target: T1, recombinant toxin B fragment 4; test: Western blot, 3 ug protein per lane, mAb from CHOK1SV at 5 ug/mL
[6] = target: T2, Clostridium difficile toxin B (whole …); test: BLI (Octet QKe), mAb from CHOK1SV, toxin B; column kdis2 (1/s)

Binder	binding result [1]	binding result [2]	Kd [3]	koff [4]	kon [4]	binding result [5]	koff [6]
B1	no binding (tested: 0.038 ug/mL)	binds					
B2			0.423 nM	0.000234 s⁻¹	552000 M⁻¹ s⁻¹	no binding (tested: 5 ug/mL)	< 1e-07 s⁻¹
